Data as given in patent US20040131585A1.

Molecular target: human CXCR4 on intravenously injected human CD34+ angioblasts (human) (UniProt P61073)
Experiment: cell-based or functional assay

Chain of UniProt P61073 (P61073 whole entry): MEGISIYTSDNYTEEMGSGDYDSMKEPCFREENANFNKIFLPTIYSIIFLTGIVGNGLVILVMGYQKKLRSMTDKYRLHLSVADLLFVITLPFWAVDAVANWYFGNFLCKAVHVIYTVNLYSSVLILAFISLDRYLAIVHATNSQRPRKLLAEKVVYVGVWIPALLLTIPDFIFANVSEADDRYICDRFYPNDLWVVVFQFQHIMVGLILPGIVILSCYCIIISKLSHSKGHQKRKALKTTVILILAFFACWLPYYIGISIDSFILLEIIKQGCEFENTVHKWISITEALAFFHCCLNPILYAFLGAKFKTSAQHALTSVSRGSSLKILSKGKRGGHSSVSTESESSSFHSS

increase in trafficking of CD34+ human angioblasts to ischemic rat myocardium, with co-administered mAb against human CXCR4: 24%
increase in trafficking of CD34+ human angioblasts to ischemic rat myocardium, with co-administered mAb against rat SDF-1: 17%
Substance: rat SDF-1 (stromal-derived factor-1) (ligand)
